The values below come from patent publication US20130045219A1 (UCB, published 2013).

To fix the notation:
B1: 342 Fab'-PEG (Fab, V domains shown)
VH: EVQLVESGGGLVQPGGSLRLSCAVSGFSSTNYHVHWVRQAPGKGLEWMGVIWGDGDTSYNSVLKSRFTISRDTSKNTVYLQMNSLRAEDTAVYYCARQLTHYYVLAAWGQGTLVTVSS
VL: DIQMTQSPSSLSASVGDRVTITCRASEDLYYNLAWYQRKPGKAPKLLIYDTYRLADGVPSRFSGSGSGTDYTLTISSLQPEDFASYYCQQYYKFPFTFGQGTKVEIKR
modifications: PEG-maleimide on the single cysteine at the hinge
B2: 342 Di-Fab'-PEG (other)
heavy chain (Fab'): EVQLVESGGGLVQPGGSLRLSCAVSGFSSTNYHVHWVRQAPGKGLEWMGVIWGDGDTSYNSVLKSRFTISRDTSKNTVYLQMNSLRAEDTAVYYCARQLTHYYVLAAWGQGTLVTVSSASTKGPSVFPLAPSSKSTSGGTAALGCLVKDYFPEPVTVSWNSGALTSGVHTFPAVLQSSGLYSLSSVVTVPSSSLGTQTYICNVNHKPSNTKVDKKVEPKSCDKTHTCAA
light chain: DIQMTQSPSSLSASVGDRVTITCRASEDLYYNLAWYQRKPGKAPKLLIYDTYRLADGVPSRFSGSGSGTDYTLTISSLQPEDFASYYCQQYYKFPFTFGQGTKVEIKRTVAAPSVFIFPPSDEQLKSGTASVVCLLNNFYPREAKVQWKVDNALQSGNSQESVTEQDSKDSTYSLSSTLTLSKADYEKHKVYACEVTHQGLSSPVTKSFNRGEC
modifications: the two Fab' are cross-linked and PEGylated; paragraph 96 describes DFM-PEG as two Fab' cross-linked with a PEGylated dimaleimide bridge
B3: anti-CD154 antibody 338 (Fab, V domains shown)
VH: QVQLTESGPGLVQPSQTLSLTCTVSGFSLTSHHISWVRQPPGKGLEWVGVMWNDGGTLYNSALKSRPSISRDTSKSQVFLKMSSLQTEDTATYYCARGKMHYYVLDAWGQGASVTVS
VL: DIQMTQSPASLSASLGETVTIECRTSEDIYSNLAWYRQRPGKSPQLLIYDTNRLADGVPSRFSGSGSGTQYSLKINSLQSEDVASYFCQHYSNFPWTFGGDTKLELK
B4: chimeric 342 Fab′ (unlabeled 342 Fab′ of FIG. 29C) (Fab, V domains shown)
VH: QVQLKESGPGLVQPSETLSLTCTVSGFSSTNYHVHWVRQPPGKSLEWMGVIWGDGDTSYNSVLKSRLSITRDTSRSQVFLKMSSLQTEDTATYYCARQLTHYYVLAAWGQGASVTVS
VL: DIQMTQSPASLSASLGETVTVECRASEDLYYNLAWYQRKPGNSPQLLIYDTYRLADGVPSRFSGSGSGTQYSLKINTLPSGDVASYFCQQYYKFPFTFGSGTKLELK
notes: also called ch342 Fab
B5: 342 aglycosyl IgG4 (antibody, V domains shown)
VH: B1 VH
VL: B1 VL
modifications: S228P and T299A (Kabat EU) are contained in SEQ ID NO: 72; not N-glycosylated
notes: also called aglycosylated hu342; hu342 aglyP-huIgG4
B6: 342 Di-Fab' (other)
heavy chain (Fab'): B2 heavy chain (Fab')
light chain: B2 light chain
modifications: the two Fab' are cross-linked at the hinge; the linker is not described for this molecule
B7: 342 Tri-Fab' (other)
heavy chain (Fab'): B2 heavy chain (Fab')
light chain: B2 light chain
modifications: the three Fab' are cross-linked at the hinge; the linker is not described
B8: 342 Tri-Fab'-PEG (other)
heavy chain (Fab'): B2 heavy chain (Fab')
light chain: B2 light chain
modifications: the three Fab' are cross-linked and PEGylated; the chemistry is not described

One assay addresses T1, soluble human CD154 protein (extracellular domain) (human, UniProt P29965 116-261).
T1 construct: also called sCD154; recombinant extracellular domain of human CD154
T1 sequence: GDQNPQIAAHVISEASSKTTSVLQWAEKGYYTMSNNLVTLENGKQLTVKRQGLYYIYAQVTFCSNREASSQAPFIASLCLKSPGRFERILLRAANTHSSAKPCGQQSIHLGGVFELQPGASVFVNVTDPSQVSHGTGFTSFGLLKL
In words: Biacore (SPR): antibody or fragment captured on immobilized anti-human IgG (Fc- or Fab'-specific) F(ab')2, recombinant extracellular domain of human CD154 titrated over it (Example 4). The method, then: (§1) Catalogue Number: BR-1001-88, Biacore AB, Uppsala, Sweden. Buffer stored at 4° C. Immobilization buffer is Acetate 5.0 (being 10 mM sodium acetate pH 5.0). Catalogue number: BR-1003-51, Biacore AB, Uppsala, Sweden. Buffer stored at 4° C. Ligand capture: Affinipure F(ab′)₂ fragment goat anti-human IgG, Fab′ fragment specific (Catalogue number: 109-006-097) or Fc fragment specific (Catalogue number: 109-006-098), Jackson ImmunoResearch Inc (Pennsylvania, USA). Reagents stored at 4° C. […] Analyte: Recombinant extracellular domain of human CD154. Material was prepared at 2 mg/mL (40 μM) in phosphate-buffered saline, stored at 4° C., and diluted in HBE-EP running buffer for the assays. […] Regeneration Solution: 40 mM HCl prepared by dilution with distilled water from an 11.6 M stock solution (BDH, Poole, England. Catalogue number: 101254H). 5 mM NaOH prepared by dilution with distilled water from a 50 mM stock solution. Catalogue number: BR-1003-58, Biacore AB, Uppsala, Sweden. Assay Method: BIA (Biamolecular Interaction Analysis) was performed using a Biacore® 3000 (Biacore AB). Affinipure F(ab′)₂ fragment goat anti-human IgG, Fc- or Fab′-fragment specific (Jackson ImmunoResearch) were immobilized on a CM5 Sensor Chip via amine coupling chemistry to a capture level of ≈6000 response units (RUs). HBS-EP buffer (10 mM HEPES pH 7.4, 0.15 M NaCl, 3 mM EDTA, 0.005% Surfactant P20, Biacore AB) was used as the running buffer with a flow rate of 10 μl/min. Anti-CD154 antibodies or Fab fragments were used at concentrations such that, once captured by the immobilized anti-human IgG-Fc (or anti-human IgG Fab′) surface, gave a signal of ≈200 RUs. Human CD154 was titrated over the captured antibody, at various concentrations. 90 μL of CD154 was injected over the surface (association phase), followed by a 240 second dissociation phase, all at a flow rate of 30 μl/min. […] Background subtraction binding curves were analyzed using the BIAevaluation software (version 3.2) following standard procedures. Kinetic parameters were determined from the fitting algorithm.
A general note: SPR reads the build-up and loss of mass on a sensor chip optically.
One may read the Kd as the concentration at which binding is half-saturated. On to B1, for which the Kd is 50 pM.
On the same count and under the same terms, the same measure for B2: 45 pM.

The target in the next assay is T2, CD154 expressed on D1.1 Jurkat cells (UniProt P29965 1-261, limits assumed).
T2 construct: whole, on cells; D1.1 is a human Jurkat subclone; also called CD154-expressing D1.1 cells; CD40L
T2 sequence (looked up): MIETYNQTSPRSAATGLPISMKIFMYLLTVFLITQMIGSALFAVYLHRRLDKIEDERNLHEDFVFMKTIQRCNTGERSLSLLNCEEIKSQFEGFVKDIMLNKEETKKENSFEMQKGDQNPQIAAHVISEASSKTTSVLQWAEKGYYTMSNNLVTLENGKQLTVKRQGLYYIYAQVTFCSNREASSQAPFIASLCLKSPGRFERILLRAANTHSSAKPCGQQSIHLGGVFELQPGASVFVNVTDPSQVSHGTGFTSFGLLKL
In words: flow cytometry: inhibition of the binding of hCD40-mFc-PE to CD154-expressing D1.1 Jurkat cells by serially diluted chimaeric Fab' (Example 5). On the procedure:
(§2) A flow cytometry-based assay was used to assess the binding of labeled CD40 to CD154-expressing D1.1 cells. D1.1 Jurkat cells (American Type Culture Collection) were maintained in RPMI 1640 medium (Gibco, 31870-025)) containing 10% (v/v) fetal calf serum (FCS), 2 mM glutamine (Invitrogen, 23030024), 1 mM sodium pyruvate (Invitrogen, 11360-039), 1% (v/v) D-(+)-glucose (Sigma, G8769) & 10 mM HEPES (Sigma, H0887). At time of assay, 100,000 D1.1 cells were incubated in 100 μL RPMI 1640 medium+10% FCS, in the presence or absence of serially diluted anti-CD154 antibody for 15 minutes at room temperature. 5 μL of a 1:75 dilution of hCD40-mFc-PE (Alexis Corp, ANC-504-050) was then added and incubated for a further 30 minutes at room temperature. After washing twice in phosphate-buffered saline (PBS) containing 1% (w/v) bovine serum albumin (BSA fraction V, Serologicals Proteins Inc, 81-068-5) and 0.02% (w/v) sodium azide (BDH, 103692K), cells were resuspended in 200 μL PBS/1% BSA/0.02% sodium azide and flow cytometry performed on a Becton Dickinson FACScan. The values for geometric mean fluorescence (FL2) were assessed in all cases.
(In flow cytometry, cells or beads pass a laser one at a time.)
For orientation: IC50 means the concentration needed to halve the response being measured. Read a low IC50 as higher potency. As for B3, the IC50 stood at 0.006 µg/mL.
In turn, B4 gave an IC50 of 0.008 µg/mL.

The target of another assay is T2, CD154 expressed on D1.1 Jurkat cells. Nature of the assay: flow cytometry: inhibition of the binding of hCD40-mFc-PE to CD154-expressing D1.1 Jurkat cells by serially diluted antibody (Example 5). The method, then: as §2
B1 showed an IC50 of 0.035 µg/mL.
Consider B5, for which the IC50 amounted to 0.025 µg/mL.
B6 came in with an IC50 of 0.009 µg/mL.
Same read-out and setting: the same measure for B2: 0.032 µg/mL; for B7: 0.009 µg/mL.
Still for that read-out and setting: the same measure for B8: 0.008 µg/mL.

The target is the same in another assay. In words: cell-based or functional assay.
B3: the “IC50 of inhibition of ICAM-1 (CD54) upregulation on CD40-expressing Ramos B cells co-cultured with CD154-expressing D1.1 Jurkat cells” value worked out at 0.192 µg/mL.
On to B4, for which the “IC50 of inhibition of ICAM-1 (CD54) upregulation on CD40-expressing Ramos B cells co-cultured with CD154-expressing D1.1 Jurkat cells” value worked out at 0.053 µg/mL.

For a further assay the target is unchanged. Nature of the assay: flow cytometry competition binding assay: serially diluted antibody against biotinylated 342 Fab on CD154-expressing D1.1 Jurkat cells, streptavidin-R-phycoerythrin detection (Example 6). On the procedure:
A flow cytometry-based assay was used to assess the binding of anti-CD154 antibody to CD154-expressing D1.1 cells. D1.1 Jurkat cells (American Type Culture Collection) were maintained in RPMI 1640 medium (Gibco, 31870-025) containing 10% (v/v) fetal calf serum (FCS), 2 mM glutamine (BioWhittaker, 17-605E) and […] (Mediatech, 30002107). […] The cells were washed three times in FACS buffer with centrifugation at 290×g for 3 minutes in between washes. A 1:500 dilution of streptavadin-R-phycoerythrin conjugate (Jackson Immunoresearch, 016-110-084) in […] FACS buffer was added and the cells were incubated for one hour at 4° C. The cells were washed once and fixed in PBS with 3% formaldehyde at room temperature for 10 minutes. The cells were resuspended in FACS buffer and run on a FacsCalibur (BD). The values for geometric mean fluorescence (FL2) were assessed in all cases.
B1 yielded an IC50 of 113 pM.
B5 gave an IC50 of 35 pM.
The molecule B2 displayed an IC50 of 26 pM.

In another assay the target is T1, soluble human CD154 protein …. Nature of the assay: Biacore (SPR): antibody or Fab' captured on immobilized anti-human IgG (Fc- or Fab'-specific) F(ab')2, recombinant extracellular domain of human CD154 titrated over it (Example 4); chimaeric Fab'. On the procedure:
as §1
For B3, the Kd is 15 pM.
Same read-out and setting: in the case of B4 it was 16 pM.

A further assay addresses T2, CD154 expressed on D1.1 Jurkat cells. In words: cell-based or functional assay. This is another data set of the same source.
B1: the “IC50 of inhibition of ICAM-1 (CD54) upregulation on CD40-expressing Ramos B cells co-cultured with CD154-expressing D1.1 Jurkat cells” value was 0.127 µg/mL.
Consider B5, for which the “IC50 of inhibition of ICAM-1 (CD54) upregulation on CD40-expressing Ramos B cells co-cultured with CD154-expressing D1.1 Jurkat cells” value was 0.048 µg/mL.
For the molecule B6, the “IC50 of inhibition of ICAM-1 (CD54) upregulation on CD40-expressing Ramos B cells co-cultured with CD154-expressing D1.1 Jurkat cells” value was 0.022 µg/mL.
Still for that read-out and setting: in the case of B2 it was 0.058 µg/mL; in that of B7, 0.031 µg/mL.
Consider B8, for which the “IC50 of inhibition of ICAM-1 (CD54) upregulation on CD40-expressing Ramos B cells co-cultured with CD154-expressing D1.1 Jurkat cells” value stood at 0.036 µg/mL.
